The target of series [1] is T1, Sox2 HMG DBD WT (human, UniProt P48431 39-118). The series can be described thus: NMR.
The target of series [2] is T1, Sox2 HMG DBD WT. The series can be described thus: EMSA. (Mobility shift assays separate free from complexed probe on a gel.)
Series [3] concerns the target Oct4 DBD (POUS-linker-POUHD) (UniProt Q01860 133-296). Put plainly: EMSA.
Series [4] addresses T1, Sox2 HMG DBD WT. Put plainly: NMR. This is another data set of the same source.
Another series addresses Sox2 HMG Y72A (human, UniProt P48431 39-118, Y108A). The series can be described thus: NMR.

Numbering of substitutions follows the chain as printed. Read-outs that look alike come from different tables or passages of the source.

Oct4 DBD (POUS-linker-POUHD), sequence (Q01860 133-296): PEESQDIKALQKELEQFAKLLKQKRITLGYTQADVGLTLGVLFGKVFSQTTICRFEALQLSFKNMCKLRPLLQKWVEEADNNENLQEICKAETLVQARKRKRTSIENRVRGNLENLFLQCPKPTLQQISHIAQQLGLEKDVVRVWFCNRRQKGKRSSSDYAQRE
T1 sequence (P48431 39-118): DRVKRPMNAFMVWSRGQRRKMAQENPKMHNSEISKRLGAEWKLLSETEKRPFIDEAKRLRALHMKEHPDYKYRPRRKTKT
Sox2 HMG Y72A, sequence (P48431 39-118 Y108A): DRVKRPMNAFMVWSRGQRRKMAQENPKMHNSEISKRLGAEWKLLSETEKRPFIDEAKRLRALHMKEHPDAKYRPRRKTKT

B1: DNA 27F (dsDNA)
DNA 1: TGGAGAATCCCGGTGCCGAGGCCGCTCAATTGGTCGTAGACAGCTCTAGCACCGCTTAAACGCACGTACGCGCTGTCCCCCGCGTTATTAGCATCCAAACAAAGACTCCCTAGTCTCCAGGCACGTGTGGTTACGAGGCTATCGT
DNA 2: ACGATAGCCTCGTAACCACACGTGCCTGGAGACTAGGGAGTCTTTGTTTGGATGCTAATAACGCGGGGGACAGCGCGTACGTGCGTTTAAGCGGTGCTAGAGCTGTCTACGACCAATTGAGCGGCCTCGGCACCGGGATTCTCCA
Turning to B1, the binding result with Sox2 HMG DBD WT [1] was “binds”.

B2: DNA 62N (dsDNA)
DNA 1: TGGAGAATCCCGGTGCCGAGGCCGCTCAATTGGTCGTAGACAGCTCTAGCACCGCTTAAACGCACGTACGCGCTGTCCCCCGCGTTTTAACCGCCAAGGGGATTACTCCCTAGTCTCCAGGCACTTTTGCATTACAATGTATCGT
DNA 2: ACGATACATTGTAATGCAAAAGTGCCTGGAGACTAGGGAGTAATCCCCTTGGCGGTTAAAACGCGGGGGACAGCGCGTACGTGCGTTTAAGCGGTGCTAGAGCTGTCTACGACCAATTGAGCGGCCTCGGCACCGGGATTCTCCA
One may read the Kd as the equilibrium constant for the complex coming apart. A high value points to a looser complex. On to B2, for which the Kd in the series with Sox2 HMG DBD WT [2] was determined as 2.3 ± 0.3 nM.

B3: DNA 54RN (dsDNA)
DNA 1: TGGAGAATCCCGGTGCCGAGGCCGCTCAATTGGTCGTAGACAGCTCTAGCACCGCTTAAACGCACGTACGCGCTGTCCCCCGCGTTTTAACCGCCAAGGGGATTACTCCCTAGTCTCCAGGCCATTGTAATGCAAAAGCTATCGT
DNA 2: ACGATAGCTTTTGCATTACAATGGCCTGGAGACTAGGGAGTAATCCCCTTGGCGGTTAAAACGCGGGGGACAGCGCGTACGTGCGTTTAAGCGGTGCTAGAGCTGTCTACGACCAATTGAGCGGCCTCGGCACCGGGATTCTCCA
On to B3, for which the Kd in the series with Sox2 HMG DBD WT [2] was determined as 3 ± 0.4 nM; in series [3], 38 ± 4 nM.

B4: DNA 62F (dsDNA)
DNA 1: TGGAGAATCCCGGTGCCGAGGCCGCTCAATTGGTCGTAGACAGCTCTAGCACCGCTTAAACGCACGTACGCGCTGTCCCCCGCGTTTTAACCGCCAAGGGGATTACTCCCTAGTCTCCAGGATTAGCATCCAAACAAAGTATCGT
DNA 2: ACGATACTTTGTTTGGATGCTAATCCTGGAGACTAGGGAGTAATCCCCTTGGCGGTTAAAACGCGGGGGACAGCGCGTACGTGCGTTTAAGCGGTGCTAGAGCTGTCTACGACCAATTGAGCGGCCTCGGCACCGGGATTCTCCA
B4 displayed a Kd in the series with Sox2 HMG DBD WT [2] of 2.1 ± 0.2 nM.

B5: DNA 2RN (dsDNA)
DNA 1: TGGAGAATCCCGGTGCCGAGGCCGCTCAATTGGTCGTAGACAGCTCTAGCACCGCTTAAACGCACGTACGCATTGTAATGCAAAATTTAACCGCCAAGGGGATTACTCCCTAGTCTCCAGGCACGTGTGGTTACGAGGCTATCGT
DNA 2: ACGATAGCCTCGTAACCACACGTGCCTGGAGACTAGGGAGTAATCCCCTTGGCGGTTAAATTTTGCATTACAATGCGTACGTGCGTTTAAGCGGTGCTAGAGCTGTCTACGACCAATTGAGCGGCCTCGGCACCGGGATTCTCCA
B5 had a Kd with Sox2 HMG DBD WT [2] of 3.7 ± 0.5 nM.

B6: DNA 601* (dsDNA)
DNA 1: B5 DNA 1 with A72G, T73C, A77C, A78C, T79C, G80C, A82G, A83C, A84G, A85T
DNA 2: B2 DNA 2 with C7G, A8C, T9C, G11C, T12G, A13T, T15A, G16C, A19C, A21C
Turning to B6, the figures for the Kd (in the series with Sox2 HMG DBD WT [2]; in series [3]) were 8 ± 0.7 nM and 160 ± 20 nM, respectively.

B7: DNA 54RF (dsDNA)
DNA 1: TGGAGAATCCCGGTGCCGAGGCCGCTCAATTGGTCGTAGACAGCTCTAGCACCGCTTAAACGCACGTACGCGCTGTCCCCCGCGTTTTAACCGCCAAGGGGATTACTCCCTAGTCTCCAGGCCTTTGTTTGGATGCTAATATCGT
DNA 2: ACGATATTAGCATCCAAACAAAGGCCTGGAGACTAGGGAGTAATCCCCTTGGCGGTTAAAACGCGGGGGACAGCGCGTACGTGCGTTTAAGCGGTGCTAGAGCTGTCTACGACCAATTGAGCGGCCTCGGCACCGGGATTCTCCA
For the molecule B7, the Kd in the series with Sox2 HMG DBD WT [2] was 1.1 ± 0.2 nM; in series [3] it was 32 ± 3 nM.

B8: sDNAF (dsDNA)
DNA 1: GACTCTTTGTTTGGC
DNA 2: GCCAAACAAAGAGTC
Regarding B8, the binding result with Sox2 HMG DBD WT [4] and with Sox2 HMG Y72A was “binds” each time.

The record behind these values is doi:10.1101/2022.01.18.476780.
